According to patent US20140134169A1, “Methods of Treating Ovarian Cancer with Dll4 Antagonists” (Regeneron Pharmaceuticals, Inc., priority 2012, published 2014):

Columns and labels:
Assay type in all cases: in vivo, human
TOV-112D cells = test: TOV-112D ovarian xenograft (subcutaneous) tumor growth inhibition; settings: SCID mice (native murine Dll4); REGN421 2.5 mg/kg or mDll4Ab1 5 mg/kg 1x/week
Method: (§1) Ovarian tumor xenograft cells were implanted into humanized Dll4 SCID mice or vendor SCID mice (i.e., SCID mice expressing native murine Dll4). After implantation, mice were treated with REGN421 (anti-human Dll4 antibody, binds to human Dll4), mDll4Ab1 (anti-murine Dll4 antibody, binds to murine Dll4), or a human Fc domain control protein. In one study, mice were treated with VEGF-Trap, mDll4Ab1 or VEGF-Trap plus mDll4Ab1. TOV-112D cells (5×10^6) were implanted subcutaneously into the right flank of humanized Dll4 (n=4) or vendor SCID mice (n=7). Treatment with REGN421 (2.5 mg/kg, 1×/week) or mDll4Ab1 (5 mg/kg, 1×/week) vs. hFc control was initiated one week after tumor cell implantation. Animals were treated for 2 to 3 weeks. A2780 cells (2×10^6) were implanted intraperitoneally into humanized Dll4 or vendor SCID mice (n=4-5). Treatment with REGN421 (2.5 mg/kg, 1×/week) or mDll4Ab1 (5 mg/kg, 1×/week) vs. hFc control was initiated one week after tumor cell implantation. For the A2780 combination study, simultaneous treatment with mDll4Ab1 (5 mg/kg, 1×/week) and VEGF-Trap (10 mg/kg, 2×/week) was initiated one week after tumor cell implantation. A VEGF-Trap single treatment arm was included in this study. Animals bearing A2780 tumors were treated for 4-5 weeks. SKOV-3 cells (5×10^6) in matrigel were implanted subcutaneously and tumor-bearing animals (n=10) were dosed with REGN421 (2.5 mg/kg) and mDll4Ab1 (5 mg/kg) once weekly. OVCAR-3 cells (1×10^7) were implanted subcutaneously into the right flank of vendor SCID mice (n=7). Treatment with mDll4Ab1 (5 mg/kg 1×/week) vs. hFc control was initiated 66 days after tumor cell implantation. Animals were treated for a total of 5 weeks. Tumor growth inhibition (TGI) was measured as detailed above.

A2780 cells = test: A2780 ovarian xenograft (intraperitoneal) tumor growth inhibition; settings: SCID mice (native murine Dll4); REGN421 2.5 mg/kg 1x/week, mDll4Ab1 5 mg/kg 1x/week, VEGF-Trap 10 mg/kg 2x/week
Method: as §1

SKOV-3 cells = test: SKOV-3 ovarian xenograft (subcutaneous) tumor growth inhibition; settings: SCID mice; mDll4Ab1 5 mg/kg once weekly
Method: as §1, with “SKOV-3 cells (5×10^6) in matrigel were implanted subcutaneously and tumor-bearing animals (n=10) were dosed with REGN421 (2.5 mg/kg) and mDll4Ab1 (5 mg/kg) once weekly. OVCAR-3 cells (1×10^7) were implanted subcutaneously into the right flank of vendor SCID mice (n=7). Treatment with mDll4Ab1 (5 mg/kg 1×/week) vs. hFc control was initiated 66 days after tumor cell implantation. Animals were treated for a total of 5 weeks.” left out

OVCAR-3 cells = test: OVCAR-3 ovarian xenograft (subcutaneous) tumor growth inhibition; settings: SCID mice; mDll4Ab1 5 mg/kg 1x/week, 5 weeks
Method: as §1, with “SKOV-3 cells (5×10^6) in matrigel were implanted subcutaneously and tumor-bearing animals (n=10) were dosed with REGN421 (2.5 mg/kg) and mDll4Ab1 (5 mg/kg) once weekly. OVCAR-3 cells (1×10^7) were implanted subcutaneously into the right flank of vendor SCID mice (n=7). Treatment with mDll4Ab1 (5 mg/kg 1×/week) vs. hFc control was initiated 66 days after tumor cell implantation. Animals were treated for a total of 5 weeks.” left out

[1] = tested on: TOV-112D ovarian tumor xenografts; test: Tumor microvascular density by CD31 staining, TOV-112D xenograft; settings: native Dll4 SCID mice
Method: (§2) Quantitation of tumor microvascular density was evaluated immunohistochemically using CD31 staining. Native Dll4 SCID mice with TOV-112D and SKOV-3 ovarian tumor xenografts were treated with the anti-murine Dll4 antibody mDll4Ab1 or hFc (control). […] A reduction of tumor perfusion was also seen (data not shown).

[2] = tested on: SKOV-3 ovarian tumor xenografts; test: Tumor microvascular density by CD31 staining, SKOV-3 xenograft; settings: native Dll4 SCID mice
Method: as §2

[3] = tested on: TOV-112D and SKOV-3 ovarian tumor xenografts; test: Tumor perfusion in ovarian tumor xenografts; settings: data not shown
Method: as §2

B1: mDII4Ab1: anti-murine Dll4 antibody with LCVR and HCVR of SEQ ID NO:122 and 123 (antibody)
heavy: EVQLVESGGDLVKPGGSLKLSCTASGFTFSNYGMSWVRQTPDKRLGWVATISTAGSYTYYPDSVKGRFTISRDNAKNTLYLQMSSLKSEDTAMYYCARHPGVADFDYWGQGTTLTVSSAKTTAPSVYPLAPVCGDTTGSSVTLGCLVKGYFPEPVTLTWNSGSLSSGVHTFPAVLQSDLYTLSSSVTVTSSTWPSQSITCNVAHPASSTKVDKKIEPRGPTIKPCPPCKCPAPNLLGGPSVFIFPPKIKDVLMISLSPIVTCVVVDVSEDDPDVQISWFVNNVEVHTAQTQTHREDYNSTLRVVSALPIQHQDWMSGKEFKCKVNNKDLPAPIERTISKPKGSVRAPQVYVLPPPEEEMTKKQVTLTCMVTDFMPEDIYVEWTNNGKTELNYKNTEPVLDSDGSYFMYSKLRVEKKNWVERNSYSCSVVHEGLHNHHTTKSFSRTPGK
light: DIVMTQSHKFMSISEGDRVSITCKARQDVTTSVAWYQQKPGQSPKLLIYWASTRHTGVPDRFTGSGSGTDFTLTISSVQAEDLALYYCQQHYSTPYTFGGGTKLEIKRADAAPTVSIFPPSSEQLTSGGASVVCFLNNFYPKDINVKWKIDGSERQNGVLNSWTDQDSKDSTYSMSSTLTLTKDEYERHNSYTCEATHKTSTSPIVKSFNRGEC
% TGI (TOV-112D cells): 74%
% TGI (A2780 cells): 70%
% TGI (SKOV-3 cells): 64%
% TGI (OVCAR-3 cells): 84%
Increase in Vessel Area vs. hFc (%) [1]: 276.5%
Vessel Area (%), percent vessel fraction over total tumor area [1]: 5.53%
Increase in Vessel Area vs. hFc (%) [2]: 146.8%
Vessel Area (%), percent vessel fraction over total tumor area [2]: 4.36%
tumor perfusion [3]: reduction
